Test results taken from US20160002338A1 (Hoffmann-La Roche, published 2016).

Legend:
[1] = target: human HER3 (full length, on cells) (human, UniProt P21860 20-1342); assay: cell-based or functional assay
HER3 ECD-HRG complex = target: T1, HER3 ECD-HRG complex (human, UniProt P21860 20-643); assay: SPR Biacore 3000, 37 C
T1 construct: also called Heregulin/Her-3 ECD

[2] = target: T2, human recombinant HER3 ECD (human, UniProt P21860 20-643); assay: SPR Biacore 3000, 37 C
T2 construct: 68 kDa; also called human-Her3-ECD; full length Her3 ECD

HER4 ECD-HRG complex = target: T3, HER4 ECD-HRG complex (human, UniProt Q15303 26-651); assay: SPR Biacore 3000, 37 C
T3 construct: HER4 ECD preincubated with a 5-fold molar excess of Heregulin; also called HER-4-ECD-RG
T3 sequence 1: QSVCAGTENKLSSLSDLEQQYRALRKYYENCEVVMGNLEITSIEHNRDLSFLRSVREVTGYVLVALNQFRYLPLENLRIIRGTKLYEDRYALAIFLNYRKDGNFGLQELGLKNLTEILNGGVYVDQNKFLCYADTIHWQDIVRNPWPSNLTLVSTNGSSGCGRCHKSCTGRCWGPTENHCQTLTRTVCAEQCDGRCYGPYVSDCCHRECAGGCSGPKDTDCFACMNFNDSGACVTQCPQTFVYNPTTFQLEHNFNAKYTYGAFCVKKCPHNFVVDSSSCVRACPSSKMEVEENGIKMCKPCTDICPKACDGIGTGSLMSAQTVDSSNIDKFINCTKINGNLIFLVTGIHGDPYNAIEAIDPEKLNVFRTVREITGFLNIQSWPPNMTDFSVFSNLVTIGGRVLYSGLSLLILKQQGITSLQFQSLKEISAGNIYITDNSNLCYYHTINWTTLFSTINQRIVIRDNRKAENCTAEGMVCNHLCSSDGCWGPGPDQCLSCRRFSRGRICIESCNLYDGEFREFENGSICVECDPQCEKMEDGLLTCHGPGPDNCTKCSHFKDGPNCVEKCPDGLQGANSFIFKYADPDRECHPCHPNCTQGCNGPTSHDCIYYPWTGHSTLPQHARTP
T3 sequence 2: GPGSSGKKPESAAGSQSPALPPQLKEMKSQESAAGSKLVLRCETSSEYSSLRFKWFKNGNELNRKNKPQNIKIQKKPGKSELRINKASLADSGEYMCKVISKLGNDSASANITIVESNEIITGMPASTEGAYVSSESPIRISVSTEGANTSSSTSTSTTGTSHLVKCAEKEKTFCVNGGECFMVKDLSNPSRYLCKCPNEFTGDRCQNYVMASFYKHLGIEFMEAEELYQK

[3] = target: T4, HER4 ECD peptide hairpin, overlapping 15-mer peptides (human); assay: CelluSpots peptide array
T4 construct: also called β-hairpin of HER4
T4 peptide: PQTFVYNPTTFQLEHNFNA

B1: M-05-74-Fab-Pseudomonas exotoxin conjugate (M-05-74-PE) (other)
light: QIVLTQSPAIMSASPGERVTITCSASSSVSYMHWFQQKPGTSPKLLIYSTSNLASGVPARFSGSGSGTSYSLTISRMEAEDAATYYCQQRSSYPFTFGSGTKLEIKRTVAAPSVFIFPPSDEQLKSGTASVVCLLNNFYPREAKVQWKVDNALQSGNSQESVTEQDSKDSTYSLSSTLTLSKADYEKHKVYACEVTHQGLSSPVTKSFNRGEC
heavy: QVQLQQSGAELAKPGASVKMSCKTSGYTLTDYWIHWVKQRPGQGLEWIGYINPYTGYTESNQKFKDKATLTADKSSNTAYIQLSSLTSEDSAVYYCARPYYYGDYWGQGTTLTVSSASTKGPSVFPLAPSSKSTSGGTAALGCLVKDYFPEPVTVSWNSGALTSGVHTFPAVLQSSGLYSLSSVVTVPSSSLGTQTYICNVNHKPSNTKVDKKVEPKSCGGGSLPETGGGRHRQPRGWEQLYPTGAEFLGDGGAVSFSTRGTQNWTVERLLQAHRQLEEGGYVFVGYHGTFLEAAQSIVFGGVRARSQDLDAIWAGFYIAGDPALAYGYAQDQEPDAAGRIRNGALLRVYVPRSSLPGFYATSLTLAAPEAAGEVERLIGHPLPLRLDAITGPEESGGRLETILGWPLAERTVVIPSAIPTDPRNVGGDLDPSSIPDSEAAISALPDYASQPGKPPREDL
Q: How did the “EC50 of cell killing of A549 cells, +HRG beta” value [1] turn out when B1 was run?
A: 0.13 µg/mL

Q: What about the “EC50 of cell killing of A549 cells, -HRG beta” value [1] of the same binder?
A: 1.93 µg/mL

B2: humanized variant VH-A/VL-D of anti-HER3 antibody M-05-74 (antibody, V domains shown)
VH: QVQLVQSGAELKKPGASVKVSCRTSGYTLTDYWIHWVRQAPGQGLEWMGYINPYTGYTESNQKFKDRVAMTRDASINTAYMELTSLRSDDTAVYYCARPYYYGDYWGQGTLVTVSS
VL: EIVLTQSPATLSLSPGERATLSCSASSSVSYMHWFQQKPGQPPRLLIYSTSNLASGIPARFSGSGSGTDFTLTISSLEPEDFAVYYCQQRSSYPFTFGGGTKVEIK
notes: also called humanized DIB-74
Q: With B2 as the binder, how does the “Molar Ratio MR” value (HER3 ECD-HRG complex) read?
A: 0.8

Q: And the “Molar Ratio MR” value [2]?
A: 0.7

Q: And the “Molar Ratio MR” value (HER4 ECD-HRG complex)?
A: 0.8

B3: anti-HER3 antibody M-08-11 (antibody, V domains shown)
VH: QAYLQQSGAELMRPGASVRMSCQASGYTFTSYTIHWLKQTPRQGLEWIGAIYPRNGDFSYNQKFKDKASLTVDTSSSTAYMHLSSLTSEDSAVYFCARTINYGDWFAYWGQGTLVTVSA
VL: DIQMIQSPASLFVSEGETVIITCRASENIYSNLAWYHQKKGKSPQVLVYAAIKLADGVPLRFSGSGSGTQFSLKINSLQSEDFGSYYCQHFWGPPYTFGSGTNLEIK
notes: also called M-011; <Her3> M-08-11
Q: Does B3 bind [3]?
A: no binding (tested: 1 µg/mL)
